The results in this text go back to article PMC3000793.

This experiment addresses ASIC3-YFP (UniProt O35240). The experiment in a line: FRET or BRET.
UniProt O35240, sequence (O35240 whole entry): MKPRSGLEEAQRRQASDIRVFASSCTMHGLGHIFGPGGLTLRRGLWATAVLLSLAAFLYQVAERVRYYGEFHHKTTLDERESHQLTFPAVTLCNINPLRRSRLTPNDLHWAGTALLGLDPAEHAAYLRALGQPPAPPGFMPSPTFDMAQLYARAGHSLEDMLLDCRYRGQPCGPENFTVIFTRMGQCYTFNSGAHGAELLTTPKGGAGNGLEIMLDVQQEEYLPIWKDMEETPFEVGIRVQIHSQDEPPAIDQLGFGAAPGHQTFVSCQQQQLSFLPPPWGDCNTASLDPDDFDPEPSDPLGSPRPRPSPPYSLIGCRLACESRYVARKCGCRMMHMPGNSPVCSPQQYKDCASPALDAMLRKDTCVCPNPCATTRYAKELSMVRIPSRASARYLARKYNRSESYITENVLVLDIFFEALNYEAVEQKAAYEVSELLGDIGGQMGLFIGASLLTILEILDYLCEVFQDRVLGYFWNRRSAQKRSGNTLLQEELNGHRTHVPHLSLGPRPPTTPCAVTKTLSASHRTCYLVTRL

The substance “P2X5-CFP (from UniProt P51578 1-455) (receptor)” displayed an FRET signal (donor dequenching) of 20%.
